We go through 32 molecules from US11434299 (TENEOBIO, dated 2022).

Numbering of substitutions follows the chain as printed.

T1: human BCMA (B-Cell Maturation Antigen) on NCI-H929 cells (human, UniProt Q02223 1-184)
T1 construct: whole, on cells; Endogenous BCMA on NCI-H929 myeloma cells; also called TNFRSF17; H929 cells (BCMA+, lambda-)
T1 sequence (looked up): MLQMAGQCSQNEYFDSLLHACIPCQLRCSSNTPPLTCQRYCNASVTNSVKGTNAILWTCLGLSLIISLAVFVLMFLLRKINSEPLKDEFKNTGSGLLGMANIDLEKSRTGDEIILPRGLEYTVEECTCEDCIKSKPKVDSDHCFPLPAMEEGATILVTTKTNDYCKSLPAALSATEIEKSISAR

B1: SEQ ID NO 29 (antibody, V domains shown)
VH: EVQLLESGGGLVQPGGSLRLSCAASGFTFSSYAMNWVRQAPGKGLEWVSGIIGSGGSTYYADSVKGRFTISRDNSKNTLYLQMNSLRAEDTAVYYCVKDWNTTMITERGQGTLVTVSS
notes: UniAb: CH1 deleted, no light chain; HEK supernatant
B2: SEQ ID NO 46 (antibody, V domains shown)
VH: B1 VH with N35S, Y59F
notes: as for B1
B3: SEQ ID NO 30 (antibody, V domains shown)
VH: B1 VH with L79V
notes: as for B1
B4: SEQ ID NO 37 (antibody, V domains shown)
VH: B1 VH with S30T, S31N
notes: as for B1
B5: SEQ ID NO 53 (antibody, V domains shown)
VH: B1 VH with S31N, A88V
notes: as for B1
B6: SEQ ID NO 20 (antibody, V domains shown)
VH: B1 VH with V12A, V37I, I52S, L79V
notes: as for B1
B7: SEQ ID NO 39 (antibody, V domains shown)
VH: B1 VH with S31N, N35S, T69S
notes: as for B1
B8: SEQ ID NO 40 (antibody, V domains shown)
VH: B1 VH with N35S, A88V
notes: as for B1
B9: SEQ ID NO 24 (antibody, V domains shown)
VH: B1 VH with N35S, T69S, Y80D
notes: as for B1
B10: SEQ ID NO 22 (antibody, V domains shown)
VH: B1 VH with N35T, I52T, G53E, S54N, Y80D
notes: as for B1
B11: SEQ ID NO 43 (antibody, V domains shown)
VH: B1 VH with R19T, S31N, G56A, S57T, Y80N, V93I
notes: as for B1
B12: SEQ ID NO 35 (antibody, V domains shown)
VH: B1 VH with N35S, I52T, T69S, Y80D
notes: as for B1
B13: SEQ ID NO 50 (antibody, V domains shown)
VH: B1 VH with N35S, S57T, Y80N, V93I
notes: as for B1
B14: SEQ ID NO 23 (antibody, V domains shown)
VH: B1 VH with N35S, I52T, S54D, Y59F
notes: as for B1
B15: SEQ ID NO 48 (antibody, V domains shown)
VH: B1 VH with S31N, N35T, V37I, I52T, S54D, Y59F
notes: as for B1
B16: SEQ ID NO 28 (antibody, V domains shown)
VH: B1 VH with I52T, T69S, Y80D
notes: as for B1
B17: SEQ ID NO 33 (antibody, V domains shown)
VH: B1 VH with S31N, N35T, V37I, I52T, S54D, Y59F, T69S, Y80D
notes: as for B1
B18: SEQ ID NO 38 (antibody, V domains shown)
VH: B1 VH with L11V, G16R, N35S
notes: as for B1
B19: SEQ ID NO 44 (antibody, V domains shown)
VH: B1 VH with S31N, N35S
notes: as for B1
B20: SEQ ID NO 42 (antibody, V domains shown)
VH: B1 VH with S31N
notes: as for B1
B21: SEQ ID NO 45 (antibody, V domains shown)
VH: B1 VH with L11V, G16R
notes: as for B1
B22: SEQ ID NO 36 (antibody, V domains shown)
VH: B1 VH with S31N, K43N, I51L, I52T, L79V
notes: as for B1
B23: SEQ ID NO 41 (antibody, V domains shown)
VH: B1 VH with L11V, G16R, S31N
notes: as for B1
B24: SEQ ID NO 47 (antibody, V domains shown)
VH: B1 VH with G16E, S31N, I52V, S54G, S57T, T58S, K65R
notes: as for B1
B25: SEQ ID NO 27 (antibody, V domains shown)
VH: B1 VH with I51L, I52T, S54N, G56D, L79V
notes: as for B1
B26: SEQ ID NO 21 (antibody, V domains shown)
VH: B1 VH with G16R, S30T, S31N, I52S, S54G
notes: as for B1
B27: SEQ ID NO 34 (antibody, V domains shown)
VH: B1 VH with S31R, V37I, I52V, S57N, T69S
notes: as for B1
B28: SEQ ID NO 51 (antibody, V domains shown)
VH: B1 VH with S31N, I52T, A88V
notes: as for B1
B29: SEQ ID NO 52 (antibody, V domains shown)
VH: B1 VH with I52V, S54G, S57T, T58S, K65R
notes: as for B1
B30: SEQ ID NO 32 (antibody, V domains shown)
VH: B1 VH with N35S, I51L, I52T, G56D, S75D, L79V
notes: as for B1
B31: SEQ ID NO 49 (antibody, V domains shown)
VH: B1 VH with N35T, V37I, I52V, S54G, S57T, T58S, K65R
notes: as for B1
B32: SEQ ID NO 31 (antibody, V domains shown)
VH: B1 VH with I52T, G56D, D62A, T69S, K76Q, Y80D
notes: as for B1

In this assay the target is T1, human BCMA (B-Cell Maturation Antigen) …. Description: flow cytometry, HEK supernatants on NCI-H929 cells (BCMA+). The protocol:
Supernatants of all antibodies were also tested by flow cytometry for binding to RPMI-8226 cells (BCMA+, lambda+) and H929 cells (BCMA+, lambda−). The samples were measured by flow cytometry using a Guava easyCyte 8HT instrument from EMD Millipore and analyzed using guavaSoft. Bound antibodies were detected with goat anti-human IgG F(ab')_2 conjugated to PE (Southern Biotech 2042-09). All antibodies were diluted in PBS with 1% BSA. Positive staining was determined by comparison to staining with a human IgG1 isotype control. The NCI-H929 and RPMI-8226 cell lines are human multiple myeloma lines expressing human BCMA, which were obtained from the American Type Culture Collection (ATCC) and cultured according to ATCC recommendations.
(In flow cytometry, cells or beads pass a laser one at a time.)
Take B1: the binding result is reported as “binds”. As for B2, the entry is “binds”; as for B3, “binds”. For B4, the binding result is “binds”. As for B5, the entry is “binds”. As for B6, the entry is “binds”; as for B7, “binds”; as for B8, “binds”. As for B9, the entry is “binds”; as for B10, “binds”; as for B11, “binds”.

On to B12, for which the binding result is “binds”.

B13: the binding result was “binds”. The result for B14 reads “binds”; that for B15, “binds”; that for B16, “binds”. The result for B17 reads “binds”; that for B18, “binds”; that for B19, “binds”. As for B20, the binding result is listed as “binds”. As for B21, the entry is “binds”. As for B22, the entry is “binds”. As for B23, the entry is “binds”; as for B24, “binds”; as for B25, “binds”.

In the case of B26, the binding result is “binds”.

Consider B27, for which the binding result is recorded as “binds”. Regarding B28, the binding result is reported as “binds”.

Take B29: the binding result is on record as “binds”. As for B30, the entry is “binds”; as for B31, “binds”; as for B32, “binds”.
